Reference: PMC3064781

How the values were obtained:
scNep1 (Emg1) [1] = molecular target: T1, scNep1 (Emg1) (Saccharomyces cerevisiae, UniProt Q06287 1-252); test: X-ray crystallography
scNep1 (Emg1) [2] = molecular target: T1, scNep1 (Emg1); test: 1:1 molar mix

B1: 14-base Nep1 RNA (structured_RNA)
RNA: GGGCUUCAACGCCC
B1: binds (scNep1 (Emg1) [1]); binds (scNep1 (Emg1) [2]).
